From patent US20260242735A1 (UNIVERSIT T BASEL, published 2026)

Assays:
Assay in all cases: flow cytometry, transfected cells
human CD33 P19D = human CD33 P19D (human, UniProt P20138 18-364)
human CD33 N20D = human CD33 N20D (human, UniProt P20138 18-364)
human CD33 N20K = human CD33 N20K (human, UniProt P20138 18-364)
human CD33 W22G = human CD33 W22G (human, UniProt P20138 18-364)
human CD33 W22L = human CD33 W22L (human, UniProt P20138 18-364)
human CD33 F21I = human CD33 F21I (human, UniProt P20138 18-364)
human CD33 F21L = human CD33 F21L (human, UniProt P20138 18-364)
human CD33 P19K = human CD33 P19K (human, UniProt P20138 18-364)
human CD33 P46D = human CD33 P46D (human, UniProt P20138 18-364)
human CD33 P46R = human CD33 P46R (human, UniProt P20138 18-364)
human CD33 P46Y = human CD33 P46Y (human, UniProt P20138 18-364)
human CD33 I47P = human CD33 I47P (human, UniProt P20138 18-364)
human CD33 N20E = human CD33 N20E (human, UniProt P20138 18-364)
human CD33 W22N = human CD33 W22N (human, UniProt P20138 18-364)
human CD33 P46F = human CD33 P46F (human, UniProt P20138 18-364)
human CD33 P46H = human CD33 P46H (human, UniProt P20138 18-364)
human CD33 N20P = human CD33 N20P (human, UniProt P20138 18-364)

Measured: binding result

human CD33 W22N, sequence (P20138 18-364 W22N limits assumed): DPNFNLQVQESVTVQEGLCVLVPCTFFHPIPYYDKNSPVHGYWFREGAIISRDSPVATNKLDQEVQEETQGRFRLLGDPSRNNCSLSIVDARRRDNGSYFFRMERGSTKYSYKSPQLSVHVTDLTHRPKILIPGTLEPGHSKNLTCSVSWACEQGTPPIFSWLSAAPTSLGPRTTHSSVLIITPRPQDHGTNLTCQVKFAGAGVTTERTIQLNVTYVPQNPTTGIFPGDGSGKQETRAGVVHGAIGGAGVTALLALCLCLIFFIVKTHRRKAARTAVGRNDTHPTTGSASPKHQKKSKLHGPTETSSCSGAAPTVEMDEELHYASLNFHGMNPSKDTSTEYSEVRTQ
human CD33 P46H, sequence (P20138 18-364 P46H limits assumed): as the sequence (P20138 18-364 W22N limits assumed) above, with N5W, P29H counted along it
human CD33 P19K, sequence (P20138 18-364 P19K limits assumed): as the sequence (P20138 18-364 W22N limits assumed) above, with P2K, N5W counted along it
human CD33 N20P, sequence (P20138 18-364 N20P limits assumed): as the sequence (P20138 18-364 W22N limits assumed) above, with N3P, N5W counted along it
human CD33 F21L, sequence (P20138 18-364 F21L limits assumed): as the sequence (P20138 18-364 W22N limits assumed) above, with F4L, N5W counted along it
human CD33 W22L, sequence (P20138 18-364 W22L limits assumed): as the sequence (P20138 18-364 W22N limits assumed) above, with N5L counted along it
human CD33 I47P, sequence (P20138 18-364 I47P limits assumed): as the sequence (P20138 18-364 W22N limits assumed) above, with N5W, I30P counted along it
human CD33 F21I, sequence (P20138 18-364 F21I limits assumed): as the sequence (P20138 18-364 W22N limits assumed) above, with F4I, N5W counted along it
human CD33 P19D, sequence (P20138 18-364 P19D limits assumed): as the sequence (P20138 18-364 W22N limits assumed) above, with P2D, N5W counted along it
human CD33 N20E, sequence (P20138 18-364 N20E limits assumed): as the sequence (P20138 18-364 W22N limits assumed) above, with N3E, N5W counted along it
human CD33 P46R, sequence (P20138 18-364 P46R limits assumed): as the sequence (P20138 18-364 W22N limits assumed) above, with N5W, P29R counted along it
human CD33 N20K, sequence (P20138 18-364 N20K limits assumed): as the sequence (P20138 18-364 W22N limits assumed) above, with N3K, N5W counted along it
human CD33 P46F, sequence (P20138 18-364 P46F limits assumed): as the sequence (P20138 18-364 W22N limits assumed) above, with N5W, P29F counted along it
human CD33 P46D, sequence (P20138 18-364 P46D limits assumed): as the sequence (P20138 18-364 W22N limits assumed) above, with N5W, P29D counted along it
human CD33 W22G, sequence (P20138 18-364 W22G limits assumed): as the sequence (P20138 18-364 W22N limits assumed) above, with N5G counted along it
human CD33 N20D, sequence (P20138 18-364 N20D limits assumed): as the sequence (P20138 18-364 W22N limits assumed) above, with N3D, N5W counted along it
human CD33 P46Y, sequence (P20138 18-364 P46Y limits assumed): as the sequence (P20138 18-364 W22N limits assumed) above, with N5W, P29Y counted along it

B1: Refmab #3 (antibody, human IgG1, V domains shown)
VH: QVQLVQSGAEVKKPGSSVKVSCKASGYTFTDYNMHWVRQAPGQGLEWIGYIYPYNGGTGYNQKFKSKATITADESTNTAYMELSSLRSEDTAVYYCARGRPAMDYWGQGTLVTVSS
VL: DIQMTQSPSSLSASVGDRVTITCRASESVDNYGISFMNWFQQKPGKAPKLLIYAASNQGSGVPSRFSGSGSGTDFTLTISSLQPDDFATYYCQQSKEVPWTFGQGTKVEIK
no binding (tested: below 20%): all assays above
